Measured values taken from the Human Domainome abundance scans (Beltran et al. 2025).
± gives the uncertainty stated by the source.

Assay: abundance fitness (aPCA) (normalised: wild type 0, dead -1); higher = more abundant; growth selection in yeast, the domain comes from the species named
Details: Homo sapiens
Substance “BAG family molecular chaperone regulator 3 I28C, O95817” has an abundance fitness of -0.375 ± 0.22.
In the case of “BAG family molecular chaperone regulator 3 A13M, O95817”, the abundance fitness is reported as -0.172 ± 0.31.
“SAFB-like transcription modulator S32H, Q9NWH9” gave an abundance fitness of -0.031 ± 0.055.
With “SAFB-like transcription modulator N65L, Q9NWH9” the abundance fitness was -0.206 ± 0.035.
“BAG family molecular chaperone regulator 3 G15W, O95817” gave an abundance fitness of -0.481 ± 0.19.
“BAG family molecular chaperone regulator 3 W49D, O95817” gave an abundance fitness of -0.572 ± 0.44.
Work on “BAG family molecular chaperone regulator 3 F38L, O95817” yielded an abundance fitness of 0.326 ± 0.072.
With “SAFB-like transcription modulator P63W, Q9NWH9” the abundance fitness was -0.245 ± 0.059.
“SAFB-like transcription modulator D62R, Q9NWH9” showed an abundance fitness of -0.331 ± 0.052.
Work on “BAG family molecular chaperone regulator 3 T47C, O95817” yielded an abundance fitness of -0.227 ± 0.27.
“SAFB-like transcription modulator K31H, Q9NWH9” gave an abundance fitness of -0.102 ± 0.083.
In the case of “BAG family molecular chaperone regulator 3 D31Q, O95817”, the abundance fitness is reported as -0.557 ± 0.22.
With “BAG family molecular chaperone regulator 3 R45P, O95817” the abundance fitness was -0.321 ± 0.35.
With “SAFB-like transcription modulator G61M, Q9NWH9” the abundance fitness was -0.135 ± 0.06.
“BAG family molecular chaperone regulator 3 G58S, O95817” showed an abundance fitness of -0.193 ± 0.11.
With “SAFB-like transcription modulator D29M, Q9NWH9” the abundance fitness was -0.081 ± 0.13.
“SAFB-like transcription modulator I22S, Q9NWH9” gave an abundance fitness of -0.521 ± 0.065.
Work on “BAG family molecular chaperone regulator 3 V40A, O95817” yielded an abundance fitness of -0.556 ± 0.17.
For “BAG family molecular chaperone regulator 3 V54E, O95817”, the abundance fitness was -0.591 ± 0.28.
“BAG family molecular chaperone regulator 3 I30T, O95817” showed an abundance fitness of -0.32 ± 0.2.
For “SAFB-like transcription modulator V44I, Q9NWH9”, the abundance fitness was -0.057 ± 0.054.
Work on “BAG family molecular chaperone regulator 3 G58I, O95817” yielded an abundance fitness of 0.138 ± 0.28.
“BAG family molecular chaperone regulator 3 P32G, O95817” showed an abundance fitness of 0.335 ± 0.076.
“SAFB-like transcription modulator G60M, Q9NWH9” gave an abundance fitness of -0.238 ± 0.038.
“BAG family molecular chaperone regulator 3 K29V, O95817” showed an abundance fitness of -0.266 ± 0.11.
With “BAG family molecular chaperone regulator 3 K29C, O95817” the abundance fitness was -0.369 ± 0.24.
Work on “BAG family molecular chaperone regulator 3 H42A, O95817” yielded an abundance fitness of -0.857 ± 0.15.
“BAG family molecular chaperone regulator 3 V12L, O95817” showed an abundance fitness of 0.208 ± 0.066.
“SAFB-like transcription modulator I41T, Q9NWH9” gave an abundance fitness of -0.337 ± 0.079.
In the case of “SAFB-like transcription modulator N38D, Q9NWH9”, the abundance fitness is reported as -0.222 ± 0.086.
“SAFB-like transcription modulator V27Y, Q9NWH9” showed an abundance fitness of -0.29 ± 0.24.
Substance “SAFB-like transcription modulator T42K, Q9NWH9” has an abundance fitness of 0.035 ± 0.11.
“SAFB-like transcription modulator T42V, Q9NWH9” showed an abundance fitness of -0.488 ± 0.099.
“BAG family molecular chaperone regulator 3 P24T, O95817” showed an abundance fitness of -0.036 ± 0.086.
With “SAFB-like transcription modulator D64P, Q9NWH9” the abundance fitness was -0.519 ± 0.039.
“BAG family molecular chaperone regulator 3 E57Y, O95817” gave an abundance fitness of -0.44 ± 0.13.
For “BAG family molecular chaperone regulator 3 P21W, O95817”, the abundance fitness was -0.543 ± 0.086.
“BAG family molecular chaperone regulator 3 S44F, O95817” gave an abundance fitness of -0.682 ± 0.29.
Substance “BAG family molecular chaperone regulator 3 V54S, O95817” has an abundance fitness of -0.13 ± 0.13.
With “BAG family molecular chaperone regulator 3 N43A, O95817” the abundance fitness was -0.331 ± 0.087.
Work on “SAFB-like transcription modulator D62F, Q9NWH9” yielded an abundance fitness of -0.526 ± 0.073.
“BAG family molecular chaperone regulator 3 D18W, O95817” gave an abundance fitness of -0.317 ± 0.16.
Substance “SAFB-like transcription modulator K21A, Q9NWH9” has an abundance fitness of -0.182 ± 0.033.
“SAFB-like transcription modulator K31M, Q9NWH9” showed an abundance fitness of -0.241 ± 0.068.
In the case of “BAG family molecular chaperone regulator 3 N43R, O95817”, the abundance fitness is reported as -0.549 ± 0.12.
Work on “SAFB-like transcription modulator T46M, Q9NWH9” yielded an abundance fitness of 0.111 ± 0.073.
For “SAFB-like transcription modulator E59C, Q9NWH9”, the abundance fitness was -0.404 ± 0.037.
Work on “BAG family molecular chaperone regulator 3 I28A, O95817” yielded an abundance fitness of -0.423 ± 0.2.
With “BAG family molecular chaperone regulator 3 T46R, O95817” the abundance fitness was -0.225 ± 0.11.
“BAG family molecular chaperone regulator 3 V54F, O95817” gave an abundance fitness of -0.375 ± 0.31.
Substance “BAG family molecular chaperone regulator 3 T47N, O95817” has an abundance fitness of -0.53 ± 0.2.
Work on “BAG family molecular chaperone regulator 3 N43P, O95817” yielded an abundance fitness of -0.42 ± 0.3.
“BAG family molecular chaperone regulator 3 V54I, O95817” showed an abundance fitness of -0.335 ± 0.13.
For “BAG family molecular chaperone regulator 3 G58H, O95817”, the abundance fitness was -0.263 ± 0.1.
For “BAG family molecular chaperone regulator 3 G58A, O95817”, the abundance fitness was -0.45 ± 0.15.
With “SAFB-like transcription modulator L30S, Q9NWH9” the abundance fitness was -0.776 ± 0.058.
“BAG family molecular chaperone regulator 3 N16H, O95817” gave an abundance fitness of 0.094 ± 0.13.
In the case of “SAFB-like transcription modulator S50Q, Q9NWH9”, the abundance fitness is reported as -0.486 ± 0.22.
In the case of “BAG family molecular chaperone regulator 3 R45E, O95817”, the abundance fitness is reported as -0.422 ± 0.2.
“BAG family molecular chaperone regulator 3 D18R, O95817” gave an abundance fitness of -0.116 ± 0.09.
“SAFB-like transcription modulator L30N, Q9NWH9” gave an abundance fitness of -0.267 ± 0.19.
Work on “BAG family molecular chaperone regulator 3 E57A, O95817” yielded an abundance fitness of -0.317 ± 0.1.
“BAG family molecular chaperone regulator 3 A13L, O95817” gave an abundance fitness of 0.127 ± 0.13.
“BAG family molecular chaperone regulator 3 T46Q, O95817” showed an abundance fitness of -0.444 ± 0.14.
“SAFB-like transcription modulator R51S, Q9NWH9” gave an abundance fitness of -0.511 ± 0.063.
“SAFB-like transcription modulator G19Y, Q9NWH9” gave an abundance fitness of 0.212 ± 0.24.
Substance “SAFB-like transcription modulator I66M, Q9NWH9” has an abundance fitness of -0.316 ± 0.14.
In the case of “BAG family molecular chaperone regulator 3 N16Q, O95817”, the abundance fitness is reported as 0.465 ± 0.17.
“SAFB-like transcription modulator K21T, Q9NWH9” gave an abundance fitness of -0.355 ± 0.064.
